From article PMC9482650, “Quantitative fragmentomics allow affinity mapping of interactomes” (Nature Communications, 2022)

What was measured:
Assay in all cases: holdup assay
Set-up in all cases: key: below the threshold = too weak to quantify, mostly under pKd 3.1 to 4
ARHGAP21, Q5T5U3 = molecular target: T1, ARHGAP21, Q5T5U3
T1 sequence (Q5T5U3 45-169, limits assumed, looked up): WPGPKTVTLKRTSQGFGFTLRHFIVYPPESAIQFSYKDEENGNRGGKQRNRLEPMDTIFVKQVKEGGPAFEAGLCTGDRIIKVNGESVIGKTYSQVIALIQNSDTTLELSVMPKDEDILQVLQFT

ARHGEF11, O15085 = molecular target: T2, ARHGEF11, O15085
T2 sequence (O15085 42-136, limits assumed, looked up): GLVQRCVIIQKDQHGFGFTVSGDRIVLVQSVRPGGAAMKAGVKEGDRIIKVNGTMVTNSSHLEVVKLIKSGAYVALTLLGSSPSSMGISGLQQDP

DLG3_2, Q92796 = molecular target: T3, DLG3_2, Q92796
T3 sequence (Q92796 221-321, limits assumed, looked up): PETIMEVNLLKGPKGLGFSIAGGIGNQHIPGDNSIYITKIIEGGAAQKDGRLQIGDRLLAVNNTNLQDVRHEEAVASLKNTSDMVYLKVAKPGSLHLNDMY

DLG5_1, Q8TDM6 = molecular target: DLG5_1, Q8TDM6
Sequence of DLG5_1, Q8TDM6 (Q8TDM6 617-713): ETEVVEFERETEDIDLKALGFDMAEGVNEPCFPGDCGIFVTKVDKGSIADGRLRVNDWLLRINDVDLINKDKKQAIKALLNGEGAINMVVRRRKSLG

GORASP1, Q9BQQ3 = molecular target: GORASP1, Q9BQQ3
Sequence of GORASP1, Q9BQQ3 (Q9BQQ3 1-208): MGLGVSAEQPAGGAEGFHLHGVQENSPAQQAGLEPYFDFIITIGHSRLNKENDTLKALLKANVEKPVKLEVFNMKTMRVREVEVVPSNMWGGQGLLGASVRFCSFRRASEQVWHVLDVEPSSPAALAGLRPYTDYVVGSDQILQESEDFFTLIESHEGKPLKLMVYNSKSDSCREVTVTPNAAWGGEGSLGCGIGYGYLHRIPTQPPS

GRIP2_5, Q9C0E4 = molecular target: GRIP2_5, Q9C0E4
Sequence of GRIP2_5, Q9C0E4 (Q9C0E4 544-642): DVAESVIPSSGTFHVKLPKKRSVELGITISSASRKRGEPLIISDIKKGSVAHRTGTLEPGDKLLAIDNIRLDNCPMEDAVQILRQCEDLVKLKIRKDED

IL16_1, Q14005 = molecular target: IL16_1, Q14005
Sequence of IL16_1, Q14005 (Q14005 210-306): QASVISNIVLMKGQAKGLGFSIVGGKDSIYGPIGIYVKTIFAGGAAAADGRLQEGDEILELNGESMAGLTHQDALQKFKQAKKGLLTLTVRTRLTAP

IL16_4, Q14005 = molecular target: IL16_4, Q14005
Sequence of IL16_4, Q14005 (Q14005 1229-1329): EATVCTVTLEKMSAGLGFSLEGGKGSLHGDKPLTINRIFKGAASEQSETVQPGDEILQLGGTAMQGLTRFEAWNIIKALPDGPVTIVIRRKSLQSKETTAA

Inadl_2, Q8NI35 = molecular target: Inadl_2, Q8NI35
Sequence of Inadl_2, Q8NI35 (Q8NI35 238-335): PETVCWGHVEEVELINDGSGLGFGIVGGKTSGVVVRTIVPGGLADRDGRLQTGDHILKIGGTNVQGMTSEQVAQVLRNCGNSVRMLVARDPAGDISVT

Inadl_8, Q8NI35 = molecular target: Inadl_8, Q8NI35
Sequence of Inadl_8, Q8NI35 (Q8NI35 1425-1530): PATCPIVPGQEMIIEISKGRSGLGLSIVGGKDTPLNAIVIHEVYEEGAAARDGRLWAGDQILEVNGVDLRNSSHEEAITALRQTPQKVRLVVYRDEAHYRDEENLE

LDB3, O75112 = molecular target: LDB3, O75112
Sequence of LDB3, O75112 (O75112 1-94): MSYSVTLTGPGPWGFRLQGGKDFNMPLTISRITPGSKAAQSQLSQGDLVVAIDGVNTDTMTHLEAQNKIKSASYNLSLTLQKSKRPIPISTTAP

LNX2_2, Q8N448 = molecular target: T4, LNX2_2, Q8N448
T4 sequence (Q8N448 334-432, limits assumed, looked up): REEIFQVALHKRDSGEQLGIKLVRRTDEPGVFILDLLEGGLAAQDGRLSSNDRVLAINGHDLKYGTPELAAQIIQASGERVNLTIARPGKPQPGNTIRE

MAST1, Q9Y2H9 = molecular target: MAST1, Q9Y2H9
Sequence of MAST1, Q9Y2H9 (Q9Y2H9 962-1065): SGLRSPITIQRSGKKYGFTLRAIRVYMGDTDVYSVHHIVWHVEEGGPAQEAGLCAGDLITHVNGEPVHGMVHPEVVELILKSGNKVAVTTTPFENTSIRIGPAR

MAST2, Q6P0Q8 = molecular target: MAST2, Q6P0Q8
Sequence of MAST2, Q6P0Q8 (Q6P0Q8 1099-1202): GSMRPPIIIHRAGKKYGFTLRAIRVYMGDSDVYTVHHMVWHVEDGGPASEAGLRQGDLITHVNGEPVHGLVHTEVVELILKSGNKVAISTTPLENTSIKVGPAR

MPP6, Q9NZW5 = molecular target: T5, MPP6, Q9NZW5
T5 sequence (Q9NZW5 125-219, limits assumed, looked up): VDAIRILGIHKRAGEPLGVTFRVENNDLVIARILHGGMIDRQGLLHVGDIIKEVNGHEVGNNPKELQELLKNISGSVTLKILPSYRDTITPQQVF

NHERF2_2, Q15599 = molecular target: NHERF2_2, Q15599
Sequence of NHERF2_2, Q15599 (Q15599 142-238): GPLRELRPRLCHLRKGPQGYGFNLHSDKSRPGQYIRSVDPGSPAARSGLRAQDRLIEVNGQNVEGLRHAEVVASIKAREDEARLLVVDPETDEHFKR

NHERF3_3, Q5T2W1 = molecular target: T6, NHERF3_3, Q5T2W1
T6 sequence (Q5T2W1 238-333, limits assumed, looked up): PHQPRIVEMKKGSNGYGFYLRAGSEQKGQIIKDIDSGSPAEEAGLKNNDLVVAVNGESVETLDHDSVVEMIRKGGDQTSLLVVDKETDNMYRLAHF

NHERF4_4, Q86UT5 = molecular target: NHERF4_4, Q86UT5
Sequence of NHERF4_4, Q86UT5 (Q86UT5 464-550): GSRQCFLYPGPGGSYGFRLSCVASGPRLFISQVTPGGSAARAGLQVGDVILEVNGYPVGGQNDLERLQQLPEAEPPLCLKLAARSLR

PCLO, Q9Y6V0 = molecular target: T7, PCLO, Q9Y6V0
T7 sequence (Q9Y6V0 4491-4600, limits assumed, looked up): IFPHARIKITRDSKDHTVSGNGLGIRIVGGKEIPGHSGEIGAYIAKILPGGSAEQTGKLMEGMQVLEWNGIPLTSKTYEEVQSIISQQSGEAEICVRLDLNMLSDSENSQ

PDZRN3_1, Q9UPQ7 = molecular target: T8, PDZRN3_1, Q9UPQ7
T8 sequence (Q9UPQ7 244-349, limits assumed, looked up): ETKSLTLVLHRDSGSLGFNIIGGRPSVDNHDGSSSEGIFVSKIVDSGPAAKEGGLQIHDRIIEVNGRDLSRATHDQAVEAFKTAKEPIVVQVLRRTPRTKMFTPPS

PICK1, Q9NRD5 = molecular target: PICK1, Q9NRD5
Sequence of PICK1, Q9NRD5 (Q9NRD5 17-115): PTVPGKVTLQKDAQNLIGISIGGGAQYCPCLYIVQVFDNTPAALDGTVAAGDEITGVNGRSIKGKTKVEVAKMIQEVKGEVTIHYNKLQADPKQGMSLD

PTPN3, P26045 = molecular target: PTPN3, P26045
Sequence of PTPN3, P26045 (P26045 505-587): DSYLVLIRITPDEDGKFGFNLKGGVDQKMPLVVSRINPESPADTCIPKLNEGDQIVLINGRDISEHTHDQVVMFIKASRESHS

RHPN1, Q8TCX5 = molecular target: T9, RHPN1, Q8TCX5
T9 sequence (Q8TCX5 508-602, limits assumed, looked up): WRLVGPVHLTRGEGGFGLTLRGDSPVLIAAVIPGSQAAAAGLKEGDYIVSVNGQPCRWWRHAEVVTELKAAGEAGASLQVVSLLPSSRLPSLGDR

SHANK1, Q9Y566 = molecular target: T10, SHANK1, Q9Y566
T10 sequence (Q9Y566 658-767, limits assumed, looked up): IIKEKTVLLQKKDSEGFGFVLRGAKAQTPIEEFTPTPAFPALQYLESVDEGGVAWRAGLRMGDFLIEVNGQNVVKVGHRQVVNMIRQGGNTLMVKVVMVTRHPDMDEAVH

SIPA1L2, Q9P2F8 = molecular target: T11, SIPA1L2, Q9P2F8
T11 sequence (Q9P2F8 945-1036, limits assumed, looked up): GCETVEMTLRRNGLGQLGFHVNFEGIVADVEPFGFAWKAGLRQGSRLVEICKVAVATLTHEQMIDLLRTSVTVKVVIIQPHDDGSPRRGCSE

SNX27, Q96L92 = molecular target: SNX27, Q96L92
TJP1_2, Q07157 = molecular target: TJP1_2, Q07157
Sequence of TJP1_2, Q07157 (Q07157 181-274): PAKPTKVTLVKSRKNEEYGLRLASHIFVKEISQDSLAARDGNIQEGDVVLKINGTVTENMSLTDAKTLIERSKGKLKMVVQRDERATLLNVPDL

[1] = plain residues with an end cap or a label only (N-terminal biotin on a linker: ahx)
[2] = plain residues with an end cap or a label only (N-terminal biotin on a linker: ado-ado)

Binder: RRRKRKRTYL [HPV49-L2, P36762]
- pKd (ARHGAP21, Q5T5U3; [1]): 3.6
- pKd (ARHGEF11, O15085; [1]): 4.01
- pKd (DLG3_2, Q92796; [1]): below the threshold
- pKd (DLG5_1, Q8TDM6; [1]): below the threshold
- pKd (GORASP1, Q9BQQ3; [1]): 4.65
- pKd (GRIP2_5, Q9C0E4; [1]): below the threshold
- pKd (IL16_1, Q14005; [1]): below the threshold
- pKd (IL16_4, Q14005; [1]): below the threshold
- pKd (Inadl_2, Q8NI35; [1]): below the threshold
- pKd (Inadl_8, Q8NI35; [1]): 4.11
- pKd (LDB3, O75112; [1]): below the threshold
- pKd (LNX2_2, Q8N448; [1]): below the threshold
- pKd (MAST1, Q9Y2H9; [1]): 4.21
- pKd (MAST2, Q6P0Q8; [1]): 4.22
- pKd (MPP6, Q9NZW5; [1]): below the threshold
- pKd (NHERF2_2, Q15599; [1]): 3.49
- pKd (NHERF3_3, Q5T2W1; [1]): 4.18
- pKd (NHERF4_4, Q86UT5; [1]): 3.53
- pKd (PCLO, Q9Y6V0; [1]): below the threshold
- pKd (PDZRN3_1, Q9UPQ7; [1]): 3.51
- pKd (PICK1, Q9NRD5; [1]): 3.47
- pKd (PTPN3, P26045; [1]): 3.72
- pKd (RHPN1, Q8TCX5; [1]): 3.51
- pKd (SHANK1, Q9Y566; [1]): 4.32
- pKd (SIPA1L2, Q9P2F8; [1]): below the threshold
- pKd (SNX27, Q96L92; [1]): below the threshold
- pKd (TJP1_2, Q07157; [1]): 3.49

Binder: NRKREIFSNF [NHERF2, Q15599]
- pKd (ARHGAP21, Q5T5U3; [1]): below the threshold
- pKd (ARHGEF11, O15085; [1]): below the threshold
- pKd (DLG3_2, Q92796; [1]): below the threshold
- pKd (DLG5_1, Q8TDM6; [1]): below the threshold
- pKd (GORASP1, Q9BQQ3; [1]): below the threshold
- pKd (GRIP2_5, Q9C0E4; [1]): below the threshold
- pKd (IL16_1, Q14005; [1]): below the threshold
- pKd (IL16_4, Q14005; [1]): below the threshold
- pKd (Inadl_2, Q8NI35; [1]): below the threshold
- pKd (Inadl_8, Q8NI35; [1]): below the threshold
- pKd (LDB3, O75112; [1]): below the threshold
- pKd (LNX2_2, Q8N448; [1]): below the threshold
- pKd (MAST1, Q9Y2H9; [1]): below the threshold
- pKd (MAST2, Q6P0Q8; [1]): 3.89
- pKd (MPP6, Q9NZW5; [1]): below the threshold
- pKd (NHERF2_2, Q15599; [1]): below the threshold
- pKd (NHERF3_3, Q5T2W1; [1]): below the threshold
- pKd (NHERF4_4, Q86UT5; [1]): below the threshold
- pKd (PCLO, Q9Y6V0; [1]): below the threshold
- pKd (PDZRN3_1, Q9UPQ7; [1]): below the threshold
- pKd (PICK1, Q9NRD5; [1]): below the threshold
- pKd (PTPN3, P26045; [1]): below the threshold
- pKd (RHPN1, Q8TCX5; [1]): below the threshold
- pKd (SHANK1, Q9Y566; [1]): below the threshold
- pKd (SIPA1L2, Q9P2F8; [1]): below the threshold
- pKd (SNX27, Q96L92; [1]): below the threshold
- pKd (TJP1_2, Q07157; [1]): below the threshold

Binder: PLSPEQPTKL [TRIM50, Q86XT4]
- pKd (ARHGAP21, Q5T5U3; [2]): below the threshold
- pKd (ARHGEF11, O15085; [2]): below the threshold
- pKd (DLG3_2, Q92796; [2]): below the threshold
- pKd (DLG5_1, Q8TDM6; [2]): below the threshold
- pKd (GORASP1, Q9BQQ3; [2]): below the threshold
- pKd (GRIP2_5, Q9C0E4; [2]): below the threshold
- pKd (IL16_1, Q14005; [2]): below the threshold
- pKd (IL16_4, Q14005; [2]): below the threshold
- pKd (Inadl_2, Q8NI35; [2]): below the threshold
- pKd (Inadl_8, Q8NI35; [2]): below the threshold
- pKd (LDB3, O75112; [2]): below the threshold
- pKd (LNX2_2, Q8N448; [2]): below the threshold
- pKd (MAST1, Q9Y2H9; [2]): 3.97
- pKd (MAST2, Q6P0Q8; [2]): 4.73
- pKd (MPP6, Q9NZW5; [2]): 3.63
- pKd (NHERF2_2, Q15599; [2]): 3.86
- pKd (NHERF3_3, Q5T2W1; [2]): below the threshold
- pKd (NHERF4_4, Q86UT5; [2]): below the threshold
- pKd (PCLO, Q9Y6V0; [2]): below the threshold
- pKd (PDZRN3_1, Q9UPQ7; [2]): below the threshold
- pKd (PICK1, Q9NRD5; [2]): below the threshold
- pKd (PTPN3, P26045; [2]): below the threshold
- pKd (RHPN1, Q8TCX5; [2]): below the threshold
- pKd (SHANK1, Q9Y566; [2]): below the threshold
- pKd (SIPA1L2, Q9P2F8; [2]): below the threshold
- pKd (SNX27, Q96L92; [2]): below the threshold
- pKd (TJP1_2, Q07157; [2]): below the threshold

Binder: HNAFLSVTTV [PDZRN4, Q6ZMN7]
- pKd (ARHGAP21, Q5T5U3; [1]): 3.5
- pKd (ARHGEF11, O15085; [1]): 3.59
- pKd (DLG3_2, Q92796; [1]): 3.61
- pKd (DLG5_1, Q8TDM6; [1]): below the threshold
- pKd (GORASP1, Q9BQQ3; [1]): below the threshold
- pKd (GRIP2_5, Q9C0E4; [1]): below the threshold
- pKd (IL16_1, Q14005; [1]): below the threshold
- pKd (IL16_4, Q14005; [1]): 3.58
- pKd (Inadl_2, Q8NI35; [1]): below the threshold
- pKd (Inadl_8, Q8NI35; [1]): 3.52
- pKd (LDB3, O75112; [1]): 3.56
- pKd (LNX2_2, Q8N448; [1]): 3.87
- pKd (MAST1, Q9Y2H9; [1]): 3.65
- pKd (MAST2, Q6P0Q8; [1]): below the threshold
- pKd (MPP6, Q9NZW5; [1]): 3.5
- pKd (NHERF2_2, Q15599; [1]): below the threshold
- pKd (NHERF3_3, Q5T2W1; [1]): below the threshold
- pKd (NHERF4_4, Q86UT5; [1]): below the threshold
- pKd (PCLO, Q9Y6V0; [1]): below the threshold
- pKd (PDZRN3_1, Q9UPQ7; [1]): 3.56
- pKd (PICK1, Q9NRD5; [1]): below the threshold
- pKd (PTPN3, P26045; [1]): below the threshold
- pKd (RHPN1, Q8TCX5; [1]): below the threshold
- pKd (SHANK1, Q9Y566; [1]): below the threshold
- pKd (SIPA1L2, Q9P2F8; [1]): below the threshold
- pKd (SNX27, Q96L92; [1]): 3.65
- pKd (TJP1_2, Q07157; [1]): below the threshold
